Test results: publication PMC5620080, “The cryo-EM structure of hibernating 100S ribosome dimer from pathogenic Staphylococcus aureus” (Nature Communications, 2017)

Legend:
[1] = molecular target: the molecule itself; assay: cryo-EM structure; native 100S ribosome dimers purified from S. aureus; 6.8 Å map of the 100S, 6.7 Å focused map of the dimer interface (C2 symmetry), 3.2 Å masked 30S map
[2] = molecular target: the molecule itself; assay: SEC; Superdex-200 Increase 10/300 GL; 20 mM Tris pH 7.9, 20 mM MgCl2, 250 mM NH4Cl, 10 mM KCl; 0.5 ml/min; 50 µg of purified HPFSA protein; apparent molecular weights from a standard curve

Protein	binding result [1]	binding result [2]
S. aureus hibernating promoting factor (HPFSA), full length, in the native 100S ribosome (natural protein, UniProt Q2FIN9 1-190, looked up, hibernating promoting factor (HPF), Staphylococcus aureus JE2 (USA300), full-length hpf under its native promoter; residues 1-190; first 100 residues modelled, C-terminal domain fitted as a homology model; Two copies in the 100S dimer, one for each 70S; also called long HPF; N-HPFSA (N-terminal domain); source: S. aureus hpf-knockout strain (USA300, JE2) with plasmid pLI50hpf; isolated with the …) MIRFEIHGDNLTITDAIRNYIEEKIGKLERYFNDVPNAVAHVKVKTYSNSATKIEVTIPLKNVTLRAEERNDDLYAGIDLINNKLERQVRKYKTRINRKSRDRGDQEVFVAELQEMQETQVDNDAYDDNEIEIIRSKEFSLKPMDSEEAVLQMNLLGHDFFVFTDRETDGTSIVYRRKDGKYGLIQTSEQ	binds	
recombinant His-tagged full-length HPF (HPFSA) (natural protein, S. aureus, UniProt Q2FIN9 1-190, looked up, hibernating promoting factor (HPF), Staphylococcus aureus, full length; also called full-length HPFSA protein; source: E. coli BL21(DE3), pET28a, purified) MIRFEIHGDNLTITDAIRNYIEEKIGKLERYFNDVPNAVAHVKVKTYSNSATKIEVTIPLKNVTLRAEERNDDLYAGIDLINNKLERQVRKYKTRINRKSRDRGDQEVFVAELQEMQETQVDNDAYDDNEIEIIRSKEFSLKPMDSEEAVLQMNLLGHDFFVFTDRETDGTSIVYRRKDGKYGLIQTSEQ		binds
